Source: article PMC11445558, “The molecular dissection of TRIM25’s RNA-binding mechanism provides key insights into its antiviral activity” (Nature Communications, 2024)

Legend:
[1] = biological target: T1, TRIM25 CC-PRY/SPRY (Homo sapiens, UniProt Q14258 189-630); experiment: ITC; conditions: mean of replicates 15;29;20;9; ITC: 20 mM MES pH 6.5, 75 mM NaCl, 0.5 mM TCEP, 20 C; protein NMR: 20 mM sodium phosphate pH 6.5, 150 mM NaCl, 2 mM TCEP, 293 K
[2] = biological target: T2, TRIM25 CC (Homo sapiens, UniProt Q14258 189-379); experiment: ITC; conditions: mean of replicates 59;61;63; ITC: 20 mM MES pH 6.5, 75 mM NaCl, 0.5 mM TCEP, 20 C; protein NMR: 20 mM sodium phosphate pH 6.5, 150 mM NaCl, 2 mM TCEP, 293 K
[3] = biological target: T3, TRIM25 PRY/SPRY (Homo sapiens, UniProt Q14258 439-630); experiment: NMR; CSPs in binding site 1 only; ITC: 20 mM MES pH 6.5, 75 mM NaCl, 0.5 mM TCEP, 20 C; protein NMR: 20 mM sodium phosphate pH 6.5, 150 mM NaCl, 2 mM TCEP, 293 K; conditions: protein: recombinant; tags: His-Trx, cleaved (3C); single-stranded
[4] = biological target: T1, TRIM25 CC-PRY/SPRY; experiment: ITC; KD1 of two sites, mean of replicates 0.015;0.016;0.011; ITC: 20 mM MES pH 6.5, 75 mM NaCl, 0.5 mM TCEP, 20 C; protein NMR: 20 mM sodium phosphate pH 6.5, 150 mM NaCl, 2 mM TCEP, 293 K; conditions: protein: recombinant; tags: His-Trx, cleaved (3C); chain copies: 2; hairpin with bulge
Target sequence in this assay (Q14258 189-630): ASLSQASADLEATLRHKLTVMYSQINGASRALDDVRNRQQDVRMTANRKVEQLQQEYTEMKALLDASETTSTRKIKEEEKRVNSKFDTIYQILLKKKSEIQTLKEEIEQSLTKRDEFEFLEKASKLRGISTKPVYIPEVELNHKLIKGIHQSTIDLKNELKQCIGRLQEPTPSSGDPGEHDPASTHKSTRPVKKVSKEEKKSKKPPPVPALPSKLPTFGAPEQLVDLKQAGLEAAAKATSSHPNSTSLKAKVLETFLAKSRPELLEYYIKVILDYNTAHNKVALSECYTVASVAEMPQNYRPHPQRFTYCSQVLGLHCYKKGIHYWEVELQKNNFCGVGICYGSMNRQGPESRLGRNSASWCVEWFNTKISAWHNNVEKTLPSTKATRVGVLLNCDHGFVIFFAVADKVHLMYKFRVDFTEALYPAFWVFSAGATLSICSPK

[5] = biological target: T3, TRIM25 PRY/SPRY; experiment: ITC; mean of replicates 0.3;0.7;0.3;0.2;0.6; DENV-SL in cell; ITC: 20 mM MES pH 6.5, 75 mM NaCl, 0.5 mM TCEP, 20 C; protein NMR: 20 mM sodium phosphate pH 6.5, 150 mM NaCl, 2 mM TCEP, 293 K; conditions: protein: recombinant; tags: His-Trx, cleaved (3C); chain copies: 3; hairpin with bulge
[6] = biological target: the molecule itself; experiment: SEC-MALS; 50 µl injected onto Superdex 200 5/150 GL in 20 mM MES, pH 6.5, 75 mM NaCl, 0.5 mM TCEP, 0.3 ml/min, room temperature
[7] = biological target: T3, TRIM25 PRY/SPRY; experiment: NMR; CSPs in binding site 2 only; ITC: 20 mM MES pH 6.5, 75 mM NaCl, 0.5 mM TCEP, 20 C; protein NMR: 20 mM sodium phosphate pH 6.5, 150 mM NaCl, 2 mM TCEP, 293 K; conditions: protein: recombinant; tags: His-Trx, cleaved (3C); chain copies: 3; hairpin
[8] = biological target: T1, TRIM25 CC-PRY/SPRY; experiment: ITC; KD1 of two sites, mean of replicates 0.25;0.03;0.02; ITC: 20 mM MES pH 6.5, 75 mM NaCl, 0.5 mM TCEP, 20 C; protein NMR: 20 mM sodium phosphate pH 6.5, 150 mM NaCl, 2 mM TCEP, 293 K; conditions: protein: recombinant; tags: His-Trx, cleaved (3C); chain copies: 2; hairpin
Target sequence in this assay (Q14258 189-630): as above

[9] = biological target: T1, TRIM25 CC-PRY/SPRY; experiment: ITC; ITC: 20 mM MES pH 6.5, 75 mM NaCl, 0.5 mM TCEP, 20 C; protein NMR: 20 mM sodium phosphate pH 6.5, 150 mM NaCl, 2 mM TCEP, 293 K; conditions: protein: recombinant, tags: His-Trx, cleaved (3C), chain copies: 2
Target sequence in this assay (Q14258 189-630): as above

[10] = biological target: T2, TRIM25 CC; experiment: as above; conditions: protein: recombinant; tags: His-Trx, cleaved (3C); chain copies: 2; hairpin
[11] = biological target: T4, TRIM25 CC-PRY/SPRY-m9 (Homo sapiens, UniProt Q14258 189-630, K283A;K285A;K320E;Y323E;H331E;K332E;H505E;K508E;K602E); experiment: ITC; 200 uM RNA, 20 uM protein; ITC: 20 mM MES pH 6.5, 75 mM NaCl, 0.5 mM TCEP, 20 C; protein NMR: 20 mM sodium phosphate pH 6.5, 150 mM NaCl, 2 mM TCEP, 293 K; conditions: protein: recombinant; tags: His-Trx, cleaved (3C); chain copies: 2; hairpin
[12] = biological target: TRIM25 CC-m4 (Homo sapiens, UniProt Q14258 189-379, K320E;Y323E;H331E;K332E); experiment: ITC; 400 uM RNA, 50 uM protein; ITC: 20 mM MES pH 6.5, 75 mM NaCl, 0.5 mM TCEP, 20 C; protein NMR: 20 mM sodium phosphate pH 6.5, 150 mM NaCl, 2 mM TCEP, 293 K; conditions: protein: recombinant; tags: His-Trx, cleaved (3C); chain copies: 2; hairpin
[13] = biological target: TRIM25 PRY/SPRY-m3 (Homo sapiens, UniProt Q14258 439-630, H505E;K508E;K602E); experiment: as above; conditions: protein: recombinant; tags: His-Trx, cleaved (3C); chain copies: 3; hairpin
[14] = biological target: TRIM25 CC-m2 (Homo sapiens, UniProt Q14258 189-379, K283A;K285A); experiment: ITC; enthalpy reduced about 10-fold; ITC: 20 mM MES pH 6.5, 75 mM NaCl, 0.5 mM TCEP, 20 C; protein NMR: 20 mM sodium phosphate pH 6.5, 150 mM NaCl, 2 mM TCEP, 293 K; conditions: protein: recombinant; tags: His-Trx, cleaved (3C); chain copies: 2; hairpin
[15] = biological target: T3, TRIM25 PRY/SPRY; experiment: ITC; Supplementary Table 1 first row (probably pre-let-7) reads 0.76-0.97 uM; ITC: 20 mM MES pH 6.5, 75 mM NaCl, 0.5 mM TCEP, 20 C; protein NMR: 20 mM sodium phosphate pH 6.5, 150 mM NaCl, 2 mM TCEP, 293 K; conditions: protein: recombinant; tags: His-Trx, cleaved (3C); chain copies: 3; hairpin
[16] = biological target: T3, TRIM25 PRY/SPRY; experiment: ITC; ITC: 20 mM MES pH 6.5, 75 mM NaCl, 0.5 mM TCEP, 20 C; protein NMR: 20 mM sodium phosphate pH 6.5, 150 mM NaCl, 2 mM TCEP, 293 K; conditions: protein: recombinant; tags: His-Trx, cleaved (3C); chain copies: 3; stem-loop (called 28-mer duplex RNA)
[17] = biological target: T1, TRIM25 CC-PRY/SPRY; experiment: ITC; KD1 of two sites; ITC: 20 mM MES pH 6.5, 75 mM NaCl, 0.5 mM TCEP, 20 C; protein NMR: 20 mM sodium phosphate pH 6.5, 150 mM NaCl, 2 mM TCEP, 293 K; conditions: protein: recombinant; tags: His-Trx, cleaved (3C); chain copies: 2; hairpin
Target sequence in this assay (Q14258 189-630): as above

[18] = biological target: T4, TRIM25 CC-PRY/SPRY-m9; experiment: ITC; 300 uM RNA, 30 uM protein; ITC: 20 mM MES pH 6.5, 75 mM NaCl, 0.5 mM TCEP, 20 C; protein NMR: 20 mM sodium phosphate pH 6.5, 150 mM NaCl, 2 mM TCEP, 293 K; conditions: protein: recombinant; tags: His-Trx, cleaved (3C); chain copies: 2; hairpin

T3 sequence (Q14258 439-630): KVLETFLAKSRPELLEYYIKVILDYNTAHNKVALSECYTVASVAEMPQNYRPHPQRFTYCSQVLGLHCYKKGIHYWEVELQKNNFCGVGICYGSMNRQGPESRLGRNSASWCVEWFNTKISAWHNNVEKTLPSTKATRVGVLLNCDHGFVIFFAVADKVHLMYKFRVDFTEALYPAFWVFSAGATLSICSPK
Sequence of TRIM25 PRY/SPRY-m3 (Q14258 439-630 H505E/K508E/K602E): as the sequence (Q14258 439-630) above, with H67E, K70E, K164E counted along it

Lnczc3h7a loop
Kd [1]: 18000 nM
Kd [2]: 61000 nM

UAAAAGGAGAU (ssRNA) [pre-let-7 loop]
binding result [3]: binds

GCAGGUCGGAUUAAGCCAUAGUACGGGAAAAACUAUGCUACCUG (structured_RNA) [DENV-SL]
Kd [4]: 14 nM
Kd [5]: 420 nM

B1: TRIM25 CC (aa 189–379) (domain or fragment, human, UniProt Q14258 189-379, looked up)
chain: ASLSQASADLEATLRHKLTVMYSQINGASRALDDVRNRQQDVRMTANRKVEQLQQEYTEMKALLDASETTSTRKIKEEEKRVNSKFDTIYQILLKKKSEIQTLKEEIEQSLTKRDEFEFLEKASKLRGISTKPVYIPEVELNHKLIKGIHQSTIDLKNELKQCIGRLQEPTPSSGDPGEHDPASTHKSTRP
notes: also called CC domain; coiled-coil (CC) dimerisation domain
binding result [6]: binds

B2: TRIM25 CC-m2 (domain or fragment, human, UniProt Q14258 189-379, looked up)
chain: ASLSQASADLEATLRHKLTVMYSQINGASRALDDVRNRQQDVRMTANRKVEQLQQEYTEMKALLDASETTSTRKIKEEEKRVNSKFDTIYQILLAKASEIQTLKEEIEQSLTKRDEFEFLEKASKLRGISTKPVYIPEVELNHKLIKGIHQSTIDLKNELKQCIGRLQEPTPSSGDPGEHDPASTHKSTRP
binding result [6]: binds

B3: TRIM25 CC-m4 (domain or fragment, human, UniProt Q14258 189-379, looked up)
chain: ASLSQASADLEATLRHKLTVMYSQINGASRALDDVRNRQQDVRMTANRKVEQLQQEYTEMKALLDASETTSTRKIKEEEKRVNSKFDTIYQILLKKKSEIQTLKEEIEQSLTKRDEFEFLEKASKLRGISTEPVEIPEVELNEELIKGIHQSTIDLKNELKQCIGRLQEPTPSSGDPGEHDPASTHKSTRP
binding result [6]: binds

GUAUAGUUCAACUAUAC (structured_RNA) [pre-let-7 stem (stem-fusion)]
binding result [7]: binds

UUUUAUCUGAGUUGGAGGUGAAG (structured_RNA) [Lnczc3h7a-SL]
Kd [8]: 100 nM

GUAUAGUUUAAAAGGAGAUAACUAUAC (structured_RNA) [pre-let-7a-1@2 (pre-let-7)]
Kd ([9]; hairpin): 62 ± 44 nM
Kd [10]: 3200 ± 700 nM
binding result [11]: no binding
binding result [12]: no binding
binding result [13]: no binding
Kd [14]: 4000 ± 2000 nM
Kd [15]: 4000 ± 1000 nM

AUGGCUAGCUGGAGCCACCCGCAGUUCG (structured_RNA) [28-mer]
Kd [16]: 900 nM

UUAGUGGCAGACAAAGGCAUCGAGGCAGCCGCAGAAGUUGUCUGCGAAGU (structured_RNA) [RNA_50_motif1&2]
Kd ([9]; hairpin with bulge): 3.5 nM

GUAUAGUUUAAAGAAUGGAUAACUAUAC (structured_RNA) [pre-let-7_modified]
Kd [17]: 180 nM
binding result [18]: no binding
